According to US20240376171A1 (Hoffmann-La Roche, published 2024):

B1: human TA PD1-IL2v, MT204, 2xPQARK, in line (antibody, human IgG1, kappa, L234A L235A)
light: DIVMTQSPDSLAVSLGERATINCKASESVDTSDNSFIHWYQQKPGQSPKLLIYRSSTLESGVPDRFSGSGSGTDFTLTISSLQAEDVAVYYCQQNYDVPWTFGQGTKVEIKRTVAAPSVFIFPPSDEQLKSGTASVVCLLNNFYPREAKVQWKVDNALQSGNSQESVTEQDSKDSTYSLSSTLTLSKADYEKHKVYACEVTHQGLSSPVTKSFNRGEC
heavy 1: EVQLLESGGGLVQPGGSLRLSCAASGFSFSSYTMSWVRQAPGKGLEWVATISGGGRDIYYPDSVKGRFTISRDNSKNTLYLQMNSLRAEDTAVYYCVLLTGRVYFALDSWGQGTLVTVSSASTKGPSVFPLAPSSKSTSGGTAALGCLVKDYFPEPVTVSWNSGALTSGVHTFPAVLQSSGLYSLSSVVTVPSSSLGTQTYICNVNHKPSNTKVDKKVEPKSCDKTHTCPPCPAPEAAGGPSVFLFPPKPKDTLMISRTPEVTCVVVDVSHEDPEVKFNWYVDGVEVHNAKTKPREEQYNSTYRVVSVLTVLHQDWLNGKEYKCKVSNKALGAPIEKTISKAKGQPREPQVCTLPPSRDELTKNQVSLSCAVKGFYPSDIAVEWESNGQPENNYKTTPPVLDSDGSFFLVSKLTVDKSRWQQGNVFSCSVMHEALHNHYTQKSLSLSPG
heavy 2: not shown
notes: Bivalent human PD1-targeted human IgG PG LALA with IL2v and MT204 scFv mask 'in-line' on the C-terminus of the Fc knob chain, two PQARK sites; also called P1AG9606; P1AG9606-008
B2: human TA PD1-IL2v, MT204, non cleavable, in line (antibody, human IgG1, kappa, L234A L235A)
light: B1 light
heavy 1: B1 heavy 1
heavy 2: not shown
notes: Bivalent human PD1-targeted human IgG PG LALA with masked IL2v in-line on the Fc knob chain and no matriptase sites (non-cleavable control); also called P1AG5740; P1AG5740-004
B3: human PD1-IL2v, unmasked, in line (antibody, human IgG1, kappa, L234A L235A)
light: B1 light
heavy 1: B1 heavy 1
heavy 2: not shown
notes: Bivalent human PD1-targeted human IgG PG LALA with IL2v fused to the C-terminus of the Fc knob chain (non-masked control); also called P1AA7146; P1AA7146-006
B4: TA PD1-IL2v, MT204, non cleavable, N-term (antibody, human IgG1, kappa, L234A L235A)
light chain of the anti-human PD1 Fab (C02011851-A): B1 light
heavy chain, Fc hole, PG LALA (C01483382-H): EVQLLESGGGLVQPGGSLRLSCAASGFSFSSYTMSWVRQAPGKGLEWVATISGGGRDIYYPDSVKGRFTISRDNSKNTLYLQMNSLRAEDTAVYYCVLLTGRVYFALDSWGQGTLVTVSSASTKGPSVFPLAPSSKSTSGGTAALGCLVKDYFPEPVTVSWNSGALTSGVHTFPAVLQSSGLYSLSSVVTVPSSSLGTQTYICNVNHKPSNTKVDKKVEPKSCDKTHTCPPCPAPEAAGGPSVFLFPPKPKDTLMISRTPEVTCVVVDVSHEDPEVKFNWYVDGVEVHNAKTKPREEQYNSTYRVVSVLTVLHQDWLNGKEYKCKVSNKALGAPIEKTISKAKGQPREPQVCTLPPSRDELTKNQVSLSCAVKGFYPSDIAVEWESNGQPENNYKTTPPVLDSDGSFFLVSKLTVDKSRWQQGNVFSCSVMHEALHNHYTQKSLSLSPGK
MT204 scFv mask - non-cleavable linker - IL2v - Fc knob chain, PG LALA (C2184220946-K): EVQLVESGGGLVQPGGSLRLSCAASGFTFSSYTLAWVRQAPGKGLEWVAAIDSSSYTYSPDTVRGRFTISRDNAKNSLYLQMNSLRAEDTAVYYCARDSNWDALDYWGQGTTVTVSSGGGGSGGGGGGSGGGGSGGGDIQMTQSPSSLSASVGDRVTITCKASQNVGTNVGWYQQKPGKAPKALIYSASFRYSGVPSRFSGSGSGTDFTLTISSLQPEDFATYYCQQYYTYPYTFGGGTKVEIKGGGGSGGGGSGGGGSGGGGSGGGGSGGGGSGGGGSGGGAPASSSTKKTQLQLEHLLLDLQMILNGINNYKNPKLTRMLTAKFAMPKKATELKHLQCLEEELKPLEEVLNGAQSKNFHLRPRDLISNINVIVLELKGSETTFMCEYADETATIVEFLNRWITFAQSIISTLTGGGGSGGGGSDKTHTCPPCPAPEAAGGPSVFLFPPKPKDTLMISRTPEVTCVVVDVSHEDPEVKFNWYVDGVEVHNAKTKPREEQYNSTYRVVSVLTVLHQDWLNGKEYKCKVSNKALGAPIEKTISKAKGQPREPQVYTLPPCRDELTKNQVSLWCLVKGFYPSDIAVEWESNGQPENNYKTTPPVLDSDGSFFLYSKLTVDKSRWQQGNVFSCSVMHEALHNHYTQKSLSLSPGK
notes: also called human TA PD1-IL2v, MT204, non cleavable, N-term; P1AG0929
B5: human TA PD1-IL2v, MT204, 2xPQARK, knob/hole (antibody, human IgG1, kappa, L234A L235A)
light: B1 light
heavy 1: EVQLLESGGGLVQPGGSLRLSCAASGFSFSSYTMSWVRQAPGKGLEWVATISGGGRDIYYPDSVKGRFTISRDNSKNTLYLQMNSLRAEDTAVYYCVLLTGRVYFALDSWGQGTLVTVSSASTKGPSVFPLAPSSKSTSGGTAALGCLVKDYFPEPVTVSWNSGALTSGVHTFPAVLQSSGLYSLSSVVTVPSSSLGTQTYICNVNHKPSNTKVDKKVEPKSCDKTHTCPPCPAPEAAGGPSVFLFPPKPKDTLMISRTPEVTCVVVDVSHEDPEVKFNWYVDGVEVHNAKTKPREEQYNSTYRVVSVLTVLHQDWLNGKEYKCKVSNKALGAPIEKTISKAKGQPREPQVCTLPPSRDELTKNQVSLSCAVKGFYPSDIAVEWESNGQPENNYKTTPPVLDSDGSFFLVSKLTVDKSRWQQGNVFSCSVMHEALHNHYTQKSLSLSPGGGGGSGGGGSPQARKGGGGSGGGGSGGGGSGGGGSGGGEVQLVESGGGLVQPGGSLRLSCAASGFTFSSYTLAWVRQAPGKGLEWVAAIDSSSYTYSPDTVRGRFTISRDNAKNSLYLQMNSLRAEDTAVYYCARDSNWDALDYWGQGTTVTVSSGGGGSGGPQARKGGGGSGGGDIQMTQSPSSLSASVGDRVTITCKASQNVGTNVGWYQQKPGKAPKALIYSASFRYSGVPSRFSGSGSGTDFTLTISSLQPEDFATYYCQQYYTYPYTFGGGTKVEIK
heavy 2: not shown
notes: Bivalent human PD1-targeted human IgG PG LALA; also called P1AG9607; P1AG9607-006

What follows are binders tested against T1, PD1 on activated human CD4 and CD8 T cells (human, UniProt Q15116 25-288) (assay: flow cytometry, CD3/CD28-activated human PBMCs gated on CD3+CD8+ T cells, FITC anti-human Fc secondary antibody; no Matriptase digestion described).
T1 construct: whole, on cells; Endogenous PD1 on CD3/CD28-stimulated T cells; also called human PD1; PD1 receptor
Procedure: (§1) PBMCs were bought from Biomex from a healthy donor (Lot 5000899PB). The PBMCs were stimulated for 3 days with CD3 and CD28 to induce upregulation of PD1 on T cells. Therefore, PBMCs were seeded in medium (RPMI1640, 10% FCS, 2 mM Glutamine) into cell culture flasks that were coated for 1 h at 37° C. with 1 μg/ml CD3 (clone OKT3, 302914, BioLegend). CD28 was added in solution to the PBMCs at a concentration of 1 μg/ml (clone CD28.2, 302914, BioLegend). After three days, PBMCs were harvested and transferred into a 96 well round bottom plate (200′000 cells per well). The cells were washed with FACS buffer (PBS, 2% FBS, 5 mM EDTA, 0.025% NaN3) and stained with 30 μl of corresponding TA PD1-IL2v constructs in FACS buffer for 30 min at 4° C. The cells were washed twice with FACS buffer to remove unbound molecules. Then 30 μl of the diluted FITC anti-mouse Fc specific secondary antibody (1:50 dilution, 115-096-071, Jackson ImmunoResearch) or for the human constructs the diluted FITC anti-human Fc specific secondary antibody (1:50 dilution, 115-096-098, Jackson ImmunoResearch) was added to the cells. After 30 min incubation at 4° C. the cells were washed twice with FACS buffer. To detect T cells, PBMCs were stained with 30 μl of a mixture of CD3 PE/Cyanine7 (clone UCHT1, 300420, BioLegend), CD4 PE (clone RPA-T4, 300508, BioLegend) and CD8 APC (clone SK1, 344722, BioLegend) for 30 min at 4° C. The unbound antibodies were removed by washing twice with FACS buffer. Finally the cells were resuspended in 150 μl FACs buffer and measured using a BD Fortessa gating on CD3+CD4+ cells (CD4 T cells) and CD3+CD8+ cells (CD8 T cells).

T1 sequence (Q15116 25-288): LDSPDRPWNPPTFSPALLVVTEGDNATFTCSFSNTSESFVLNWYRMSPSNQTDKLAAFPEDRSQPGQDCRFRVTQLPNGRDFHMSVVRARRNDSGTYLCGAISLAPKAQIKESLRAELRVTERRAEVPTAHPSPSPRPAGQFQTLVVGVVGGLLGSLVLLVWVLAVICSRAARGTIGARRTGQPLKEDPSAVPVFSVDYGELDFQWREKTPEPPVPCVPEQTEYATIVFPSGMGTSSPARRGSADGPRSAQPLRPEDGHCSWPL

Binder | EC50 (read off the curve)
B1 | ~2 nM
B2 | ~2 nM
B3 | ~2 nM

These binders were tested against T1, PD1 on activated human CD4 and CD8 T … (assay: flow cytometry, CD3/CD28-activated human PBMCs gated on CD3+CD4+ T cells, FITC anti-human Fc secondary antibody; no Matriptase digestion described).
Procedure: as §1

Binder | EC50 (read off the curve)
B1 | ~2 nM
B2 | ~2 nM
B3 | ~2 nM

The binders below were run against T1, PD1 on activated human CD4 and CD8 T … (assay: flow cytometry, CD3/CD28-activated human PBMCs gated on CD3+CD4+ T cells, PE anti-human Fc secondary antibody; TA constructs pre-incubated with Matriptase, unmasked controls not).
Procedure: (§2) Three formats of TA PD1-IL2v molecules and respective controls were assessed for their capacity to bind to activated PD1 positive CD8 T cells and CD4 T cells within PBMCs in comparison to the respective unmasked molecules.
(§3) PBMCs were purchased from Biomex from a healthy donor (Lot 5000729PB). The PBMCs were stimulated for three days with CD3 and CD28 to induce upregulation of PD1 on T cells. Therefore, PBMCs were seeded in medium (RPMI1640, 10% FCS, 2 mM Glutamine) into cell culture flasks that were coated for 1 hour at 37° C. with 1 μg/ml CD3 (clone OKT3, 302914, BioLegend). CD28 was added in solution to the PBMCs at a concentration of 1 μg/ml (clone CD28.2, 302914, BioLegend). After three days, PBMCs were harvested and transferred into a 96 well round bottom plate (200′000 cells per well). The cells were washed with FACS buffer (PBS, 2% FBS, 5 mM EDTA, 0.025% NaN3) and stained with 30 μl of corresponding TA PD1-IL2v constructs in FACS buffer for 30 min at 4° C. Prior to the staining, 20 μg of the TA PD1-IL2v constructs were digested with 4 μl Matriptase (Enzo ˜2.5 U/μl, ALX-201-246-U25, Lot 12152015, or without Matriptase for the unmasked controls) for 2 hours at 37° C. in 40 μl Matriptase buffer (50 mM Tris, 50 mM NaCl, 0.01% Tween 20, pH 9.0). After the staining, the cells were washed twice with FACS buffer to remove unbound molecules. Then 30 μl of the diluted PE anti-human Fc specific secondary antibody (1:50 dilution, 109-116-170, Jackson ImmunoResearch) was added to the cells. After 30 min incubation at 4° C. the cells were washed twice with FACS buffer. To detect T cells, PBMCs were stained with 30 μl of a mixture of CD3 PE/Cyanine7 (clone UCHT1, 300420, BioLegend), CD4 FITC (clone RPA-T4, 300528, BioLegend) and CD8 APC/Cyanine7 (clone HIT8a, 300926, BioLegend) for 30 min at 4° C. The unbound antibodies were removed by washing twice with FACS buffer. Finally the cells resuspended in 150 μl FACS buffer and measured using a BD Fortessa gating on CD3+CD4+ cells (CD4 T cells) and CD3+CD8+ cells (CD8 T cells).

Binder | EC50 (read off the curve)
B1 | ~0.8 nM
B2 | ~0.8 nM
B3 | ~0.7 nM
B4 | ~1 nM
B5 | ~0.8 nM

The binders below were run against T1, PD1 on activated human CD4 and CD8 T … (assay: flow cytometry, CD3/CD28-activated human PBMCs gated on CD3+CD8+ T cells, PE anti-human Fc secondary antibody; TA constructs pre-incubated with Matriptase, unmasked controls not).
Procedure: as §2, §3

Binder | EC50 (read off the curve)
B1 | ~1 nM
B2 | ~1 nM
B3 | ~0.8 nM
B4 | ~2 nM
B5 | ~1 nM
